In patent US20200079842A1 (NETRIS PHARMA, published 2020):
Numbering of substitutions follows the chain as printed. Values joined by “and” are separate entries in the source; they are usually repeats but may differ in a detail not shown here. Equal values may be shown once. Each block holds one binder with its values, some of them ahead of it.

What was measured:
human netrin-1 [1] = biological target: T1, human netrin-1 (human, UniProt O95631 25-604, limits assumed); assay: SPR (Biacore T100), 4C11 captured, netrin-1 as analyte, 25° C.
T1 construct: also called NET1; netrin-I
Protocol: (§1) Murine 4C11 (IgG1) antibody (SEQ ID NO: 12 and 13) was captured via amine coupled capture molecules. A series with increasing concentrations of netrin-1 was injected. Chip surface with amine coupled capture molecule alone was used as reference control surface for correction of possible buffer-effects or non-specific binding of netrin-I.
(§2) Analyte sample: Classical concentration series were measured at a flow rate of 50 μL/min by consecutive injection of the analyte in 5 or 6 increasing concentrations (c 2-164 nM). Running buffer: 20 mM Hepes pH7.4, 600 mM NaCl, 0.005% TWEEN® 20. The analyte was injected for 3 minutes followed by a dissociation phase of 90 s.
(§3) Kinetic parameters were then calculated by using the usual double referencing (control reference: binding of analyte to capture molecule; Flow Cell: netrin-1 concentration “0” as Blank) and calculation with model ‘titration kinetics 1: 1 binding.

[2] = biological target: T2, His-tagged Netrin-1 (R&D 6419-N1) (human, UniProt O95631 25-604); assay: ELISA, coated His-tagged netrin-1, luminescence
T2 construct: Bought protein; also called adsorbed netrin-1; not shown: His tag
Protocol: White 96-well microtiter plate (Costar 3912 Corning) was incubated overnight at 4° C. with 100 ng of His-tagged Netrin-1 (R&D 6419-N1) in 100 μL of Phosphate buffer saline (PBS). After three washings with 300 μL of PBS-0.05% TWEEN®-20 (PBS-T), the plate was blocked by addition of 100 μL of PBS-3% BSA and incubated 1 hour at room temperature. After three washings with 300 μL of PBS-T, the plate was incubated with various quantities (10 ng to 1200 ng) of the anti-netrin-1 antibody. After three washings with 300 μL of PBS-T, 100 μL of a relevant secondary antibody conjugated to horse radish peroxidase (e.g. goat anti-human IgG (Fc) Sigma A0170 or goat anti-mouse IgG light chain specific (kappa) Jackson Immunoresearch 115-035-174) diluted 1/10,000 in PBST-3% BSA was added and the plate was incubated 1 hour at room temperature. After three washings with 300 μL of PBS-T, 100 μL of a luminescent substrate of HRP (ECL western blotting substrate, PIERCE) is added. After 5 to 10 minutes, the luminescence was read on a Tecan Infinite F-500 luminometer.

[3] = biological target: T3, FLAG-tagged netrin-1 (Adipogen) (human, UniProt O95631 25-604, limits assumed); assay: competition ELISA: FLAG-tagged netrin-1 with rising 4C11 on coated UNC5B-Fc, bound netrin-1 detected with anti-FLAG-HRP, luminescence
T3 construct: Bought protein; also called FLAG®-tagged Netrin-1 (APOTECH); not shown: FLAG tag
Protocol: FIG. 2: Inhibition of Netrin-1 binding onto UNC5B-Fc by 4C11. FLAG®-tagged Netrin-1 (APOTECH) in presence of various concentrations of 4C11 were incubated onto 96-well microtiter plate coated with UNC5B-Fc (Netris). Bound Netrin-1 was detected using an anti-FLAG® antibody conjugated with horseradish peroxidase (Sigma) and a chemiluminescent substrate (PIERCE ECL western blotting substrate). The luminescence was read on a Tecan Infinite F-500 luminometer.
(§4) After three washings with 300 μL of PBS-0.05% TWEEN®-20 (PBS-T), the plate was blocked by addition of 100 μL of PBS-2% BSA and incubated 1 hour at room temperature. After three washings with 300 μL of PBS-T, the plate was incubated for 1 hour at room temperature, with 100 μL of PBS-1% BSA containing 50 ng/mL FLAG®-tagged netrin-1 (Adipogen) and various quantities (0.2 ng to 3000 ng) of the 4C11 antibody. After three washings with 300 μL of PBS-T, 100 μL of an anti-FLAG® M2 monoclonal antibody conjugated to horse radish peroxidase (HRP) (Sigma A8592) diluted 1/5,000 in PBST-1% BSA was added and the plate was incubated 1 hour at room temperature. After three washings with 300 μL of PBS-T, 100 μL of a luminescent substrate of HRP (ECL western blotting substrate, PIERCE) is added. After 5 to 10 minutes, the luminescence was read on a Tecan Infinite F-500 luminometer.

[4] = biological target: T3, FLAG-tagged netrin-1 (Adipogen); assay: competition ELISA: FLAG-netrin-1 binding to coated UNC5B-Fc
Protocol: as §4

human netrin-1 [5] = biological target: T1, human netrin-1; assay: SPR (Biacore T100), 4C11 captured, netrin-1 as analyte, 25° C.; Exp 1
Protocol: as §1, §2, §3

[6] = biological target: T3, FLAG-tagged netrin-1 (Adipogen); assay: ELISA-type assay, netrin-1 coated on the plate (legend paragraph 28: FLAG-tagged Netrin-1, APOTECH; Example 3: His-tagged Netrin-1, R&D), anti-mouse IgG-HRP, luminescence
Protocol: FIG. 1: ELISA binding assay of murine 4C11 to human Netrin-1. Various concentrations of 4C11 were incubated onto 96-well microtiter plate coated with FLAG®-tagged Netrin-1 (APOTECH). Bound 4C11 was detected using a goat anti-mouse IgG conjugated with horseradish peroxidase (Jackson Immunoresearch) and a chemiluminescent substrate (PIERCE ECL western blotting substrate). The luminescent was read on a Tecan Infinite F-500 luminometer.

- Kd (human netrin-1 [1]): 13.3 nM and 12.7 nM
- kon (human netrin-1 [1]): 140000 M⁻¹ s⁻¹
- EC50 [2]: 0.057 µg/mL and 0.38 nM
- IC50 (read off the curve) [3]: ~0.6 nM
- IC50 [4]: 0.075 µg/mL and 0.502 nM
- koff (human netrin-1 [5]): 0.0018 s⁻¹
- EC50 (read off the curve) [6]: ~0.03 µg/mL
B1: murine 4C11 (IgG1) antibody (antibody, V domains shown)
VH: QAYLQQSGAELVRPGASVKMSCKASGYTFTSYNMHWVKQTPRQGLEWIGAIYPGNGDTSYNQKFKGKATLTVDKSSSTAYMQLSSLTSEDSAVYFCARGGTGFAYWGQGTLVTVSA
VL: SIVMTQTPKFLLVSAGDRVTITCKASQSVSNDVAWYQQKPGQSPKLLIYYASNRYTGVPDRFTGSGYGTDFTFTISTVQAEDLAVYFCQQDYSSPWTFGGGTKLEIKR
notes: also called NET1-M-mAb; 4C11 murine IgG1

- EC50 [2]: 13 nM and 0.65 µg/mL
- IC50 [4]: 0.844 µg/mL and 16.9 nM
B2: 4C11 Fab (Fab, V domains shown)
VH: B1 VH
VL: SIVMTQTPKFLLVSAGDRVTITCKASQSVSNDVAWYQQKPGQSPKLLIYYASNRYTGVPDRFTGSGYGTDFTFTISTVQAEDLAVYFCQQDYSSPWTFGGGTKLEIK
notes: only the variable domains are tied to it; also called Fab fragment of murine 4C11

- EC50 [2]: 0.063 µg/mL and 0.42 nM
- IC50 [4]: 0.085 µg/mL and 0.567 nM
B3: 4C11 murine IgG2a (antibody, V domains shown)
VH: B1 VH
VL: B2 VL

- EC50 [2]: 0.035 µg/mL and 0.35 nM
- IC50 [4]: 0.089 µg/mL and 0.89 nM
B4: 4C11 Fab′2 (other)
VH: B1 VH
VL: B2 VL
notes: only the variable domains are tied to it; also called Fab′2 fragment of murine 4C11

- EC50 [2]: 0.151 µg/mL and 1.01 nM
- IC50 [4]: 0.085 µg/mL and 0.567 nM
B5: HUM05 (antibody, human IgG1, V domains shown)
VH: QVQLQESGPGLVKPSQTLSLTCTVSGYTFTSYNMHWVRQAPGQGLEWMGAIYPGNGDTSYNQKFKGRVTISVDTSKNQFSLKLSSVTAADTAVYYCARGGTGFAYWGQG
VL: DIQMTQSPSSLSASVGDRVTITCKASQSVSNDVAWYLQKPGQSPQLLIYYASNRYTGVPSRFSGSGSGTDFTFTISSLEAEDAATYYCQQDYSSPWTFGQG
notes: also called humanized 4C11 variant HUM05

- EC50 [2]: 0.198 µg/mL and 1.32 nM
- IC50 [4]: 0.199 µg/mL and 1.33 nM
B6: HUM04 (antibody, human IgG1, V domains shown)
VH: EVQLVQSGAEVKKPGESLRISCKGSGYTFTSYNMHWVRQATGQGLEWMGAIYPGNGDTSYNQKFKGRFTISRDDSKNTAYLQMNSLKTEDTAVYYCARGGTGFAYWGQG
VL: B5 VL
notes: also called humanized 4C11 variant HUM04

- EC50 [2]: 0.125 µg/mL and 0.834 nM
- IC50 [4]: 0.089 µg/mL and 0.594 nM
B7: HUM07 (antibody, human IgG1, V domains shown)
VH: QVQLQQSGPGLVKPSQTLSLTCAISGYTFTSYNMHWVRQATGQGLEWMGAIYPGNGDTSYNQKFKGRVTITADKSTSTAYMELSSLRSEDTAVYYCARGGTGFAYWGQG
VL: B5 VL
notes: also called humanized 4C11 variant HUM07

- EC50 [2]: 0.26 µg/mL and 1.73 nM
- IC50 [4]: 0.215 µg/mL and 1.43 nM
B8: HUM02 (antibody, human IgG1, V domains shown)
VH: B7 VH with V37I, A40P, T41P, Q43K, M48I
VL: B5 VL with Y36F, L37Q, K39R, Q45R, L46R
notes: also called humanized 4C11 variant HUM02

- EC50 [2]: 0.134 µg/mL and 0.894 nM
- IC50 [4]: 0.054 µg/mL and 0.36 nM
B9: HUM01 (antibody, human IgG1, V domains shown)
VH: QVQLVQSGAEVKKPGASVKVSCKASGYTFTSYNMHWVRQATGQGLEWMGAIYPGNGDTSYNQKFKGRVTITADKSTSTAYMELSSLRSEDTAVYYCARGGTGFAYWGQG
VL: EIVMTQSPATLSVSPGERATLSCKASQSVSNDVAWYQQKPGKAPKLLIYYASNRYTGIPPRFSGSGYGTDFTLTINNIESEDAAYYFCQQDYSSPWTFGQG
notes: also called humanized 4C11 variant HUM01

- EC50 [2]: 0.139 µg/mL and 0.927 nM
- IC50 [4]: 0.082 µg/mL and 0.547 nM
B10: HUM06 (antibody, human IgG1, V domains shown)
VH: B9 VH
VL: DIQMTQSPSSLSASVGDRVTITCKASQSVSNDVAWYQQKPGQAPRLLIYYASNRYTGIPPRFSGSGYGTDFTLTINNIESEDAAYYFCQQDYSSPWTFGQG
notes: also called humanized 4C11 variant HUM06

- EC50 [2]: 0.153 µg/mL and 1.02 nM
- IC50 [4]: 0.071 µg/mL and 0.474 nM
B11: HUM09 (antibody, human IgG1, V domains shown)
VH: B9 VH
VL: DIVMTQTPLSLPVTPGEPASISCKASQSVSNDVAWYQQKPGQAPRLLIYYASNRYTGIPPRFSGSGYGTDFTLTINNIESEDAAYYFCQQDYSSPWTFGQG
notes: also called humanized 4C11 variant HUM09

- EC50 [2]: 0.166 µg/mL and 1.11 nM
- IC50 [4]: 0.065 µg/mL and 0.434 nM
B12: HUM03 (antibody, human IgG1, V domains shown)
VH: QVQLQQSGPGLVKPSQTLSLTCAISGYTFTSYNMHWVRQATGQGLEWMGAIYPGNGDTSYNQKFKGRLTISKDTSKNQVVLTMTNMDPVDTATYYCARGGTGFAYWGQG
VL: B10 VL
notes: also called Humanized 4C11; humanized 4C11 hum03

- EC50 [2]: 0.134 µg/mL and 0.894 nM
- IC50 [4]: 0.077 µg/mL and 0.514 nM
B13: HUM08 (antibody, human IgG1, V domains shown)
VH: B12 VH
VL: B5 VL
notes: also called humanized 4C11 variant HUM08

- EC50 [2]: 0.211 µg/mL and 1.41 nM
- IC50 [4]: 0.11 µg/mL and 0.734 nM
B14: HUM10 (antibody, human IgG1, V domains shown)
VH: B7 VH with V37I, A40P, T41P, Q43K, M48I
VL: B10 VL
notes: also called humanized 4C11 variant HUM10
